The data set concerns the molecule itself. Kind of data set: co-IP.

B1: Slk19 (recombinant; Slk19-HA-His and Slk19-Myc-His) (natural protein, budding yeast, UniProt Q08581 1-821, looked up)
chain: MNEVPTTPVRLILGQAQQREQNSENCSQERNPRTFNSEPDSSFNSPGSSQFVIHPHEPLEKEKDEKQDLDRSIDYGRSSALNNKNNANPLENIDINKMFDDKKSDSGTNDDKGGASTSDKHVLALNYSPIRVEMNSSEKRSDKNVDVDENDKEGSHINKKLKLQLESVPDLKQSSTKDIINDKEEIMSSPMAIDMIETNISPNKFIINDGVERNDSFNINTDTLKLENDINEKQQEEDFIKSNSNNVVNIDNAYKEKEDEENDITNSHINRLTPLYETSARESNSNEEGRNDYDDDNQLDIRHDNFQIVAKRNEELTDQIYHLNQMLNSLISKNESLSFQYEKLNKNHQLLIDLTNEKLDKLNTERESDIAKVEKFKKRIKELNTEIKVLNSNQKILQEKFDASITEVNHIKGEHENTVNTLQQNEKILNDKNVELENMKAELKGNNDKLSEYETTLNDLNSRIVQLNDKIESTDIVLKSKENELDNLKLSLKETLSISKDFNDSDLIGQINELISTKNNLQQKMDDLNNLNDDNLKVVQDKLIKNEETLKLKEAEIDSLNSEMDELKKQITSKDDEFKMWQSKYETVEDEAKIRNAEVTELNGDIEDLKESKLHLEETITELENKVHKLENECELEKQKFEKTSLELESLQLKNSNIQAEHIKELENLHENLISLQNELKISSDRITTLTKENEVLMEQNNNNNNSVTLSNDQKDRDDEKIKSLGKQVQDWKEKYEAKEKDTNKRLKLLAEDLYIQYSSKHEQKVKLLKKGYENKYQNKFDQLNLENKTLSEEIEQLNKQLSSEREEKQELLKLLENEKK
Turning to B1, the binding result is on record as “binds”.

Values taken from publication PMC3583661 (Molecular Biology of the Cell, 2013).
